The results in this text go back to patent US20230357354A1, “CD38-BINDING CD31 PEPTIDES AND USES THEREOF” (ENCEFA, priority 2020, published 2023).

The first assay concerns the target recombinant His-tagged CD38 (Homo sapiens, UniProt P28907). As to the kind of experiment: Pepscan-based ELISA of His-tagged CD38 on CD31 peptide arrays. The following applies: mimic type BET (β-turn mimic, mP2 CLIPS); sample with the highest signal. The format is binding. The text has this: Different sets of sCD31 peptides were synthesized according to the following designs. Note that actual order of peptides on mini-cards in some was randomized. • Set #1 • Mimic type: linear • Label: LIN15 • Linear peptides of 15 consecutive amino acid residues in length, derived from the target sequence of sCD31 with an offset of […]. • Set #2 • Mimic type: single loop (mP2 CLIPS) • Label: LOOP7 • Constrained peptides of 9 amino acid residues in length. On positions 2-8 are incorporated 7 consecutive amino acid residues derived from the target sequence of sCD31 with an offset of 1.3 residues. Cys residues were inserted on positions 1 and 9 and joined by mP2 CLIPS in order to create a loop mimic. Native Cys residues, if present, were replaced by Ser residues. • Set #3 • Mimic type: single loop, (mP2 CLIPS) • Label: LOOP15 • Constrained peptides of 17 amino acid residues in length. On positions 2-16 are incorporated 15 consecutive amino acid residues derived from the target sequence of sCD31 with an offset of […]. Cys residues were inserted on positions 1 and 17 and joined by mP2 CLIPS in order to create a loop mimic. Native Cys residues, if present, were replaced by Ser residues. • Set #4 • Mimic type: β-turn peptide mimics (mP2 CLIPS) • Label: BET • β-turn peptide mimics of 22 amino acid residues in length. On positions 2-21 are incorporated 20 consecutive amino acid residues derived from the target sequence of sCD31 with an offset of 1.3 residues. Residues on positions 11 and 12 are replaced by a Pro-Gly motif in order to induce the β-turn formation. Cys residues were inserted on positions 1 and 22 and joined by mP2 CLIPS in order to stabilize the mimic. Native Cys residues, if present, were replaced by Ser residues.
To reconstruct epitopes of sCD31, a library of peptide-based peptide mimics was synthesized using Fmoc-based solid-phase peptide synthesis. An amino functionalized polypropylene support was obtained by grafting with a hydrophilic polymer formulation, followed by reaction with t-butyloxycarbonyl-hexamethylenediamine (BocHMDA) using dicyclohexylcarbodiimide (DCC) with N-hydroxybenzotriazole (HOBt) and subsequent cleavage of the Boc-groups using trifluoroacetic acid (TFA).
Standard Fmoc-peptide synthesis was used to synthesize peptides on the amino-functionalized solid support by custom modified JANUS liquid handling stations (Perkin Elmer).
Synthesis of structural mimics was done using CLIPS technology. CLIPS technology allows to structure peptides into single loops, double loops, triple loops, sheet-like folds, helix-like folds, and combinations thereof. CLIPS templates are coupled to cysteine residues. The side-chains of multiple cysteines in the peptides are coupled to one or two CLIPS templates. For example, a 0.5 mM solution of the P2 CLIPS (2,6-bis(bromomethyl)pyridine) is dissolved in ammonium bicarbonate (20 mM, pH 7.8)/acetonitrile (1:3, v/v). This solution is added onto the peptide arrays. The CLIPS template binds to side-chains of two cysteines as present in the solid-phase bound peptides of the peptide-arrays (455 wells plate with 3-µL wells). The peptide arrays are gently shaken in the solution for 30 to 60 minutes while completely covered in solution.
Finally, the peptide arrays are washed extensively with excess of H2O and sonicated in disrupt-buffer containing 1% SDS / 0.1 % 2,2′-(ethylenedioxy)diethanethiol in PBS (pH 7.2) at 70° C. for 30 minutes, followed by sonication in H2O for another 45 minutes.
The binding of the sample (recombinant His-tagged CD38; 9 µg/mL and 20 µg/mL) to each of the synthesized peptides was tested in a pepscan-based ELISA. The peptide arrays were incubated with primary sample solution (overnight at 4° C.). […]
Background: ELISA stands for enzyme-linked immunosorbent assay.
With “10 (CMVKLKREKNPGDQNFVILEFC; Human sCD31 peptide) [compound 10]”, the “Value (binding intensity of His-tagged CD38), BET conformational peptide array” value was 1497 mAU. On the same count and under the same terms, as for “284 (CEVLRVKVIAPGDEVQISILSC) [compound 284]”, the figure is 447 mAU. Still for that read-out and setting: as for “273 (CVLFYNISSMPGTESYFIPEVC) [compound 273]”, the figure is 632 mAU; as for “267 (CSHVKPQHQMPGYKDDVLFYNC) [compound 267]”, 662 mAU.

The assay is the same for the next values; noted with them: mimic type LIN15; sample with the highest signal (His-tagged CD38 9 or 20 µg/mL).
Regarding 101 (RISKVSSIVVNITEL) [compound 101], the “Value (binding intensity of His-tagged CD38), LIN15 linear peptide array” value (“Value … LIN15 linear peptide array” below) was 572 mAU.

Take 170 (ASKEQEGEYYCTAFN) [compound 170]: the “Value … LIN15 linear peptide array” value was 400 mAU. Still for that read-out and setting: then 75 (REKNSRDQNFVILEF) [compound 75], with 453 mAU; and 30 (KPQHQMLFYKDDVLF) [compound 30], with 355 mAU; and 121 (SNDPAVFKDNPTEDV) [compound 121], with 410 mAU. Still for that read-out and setting: then 120 (NSNDPAVFKDNPTED) [compound 120], with 421 mAU. As to 102 (ISKVSSIVVNITELF) [compound 102], the “Value … LIN15 linear peptide array” value was determined as 642 mAU.

The same assay, now with this note: mimic type LOOP7 (single loop, mP2 CLIPS); sample with the highest signal.
“5 (CSTESYFIC; Human sCD31 peptide) [compound 5]”: the “Value (binding intensity of His-tagged CD38), LOOP7 conformational peptide array” value (from here on “Value … LOOP7 conformational peptide array”) is reported as 668 mAU.

221 (CDIVLQSAC) [compound 221]: the “Value … LOOP7 conformational peptide array” value came to 389 mAU.

As for 201 (CQEFPEIIC) [compound 201], the “Value … LOOP7 conformational peptide array” value is on record as 476 mAU.

In the case of 210 (CYDAQFEVC) [compound 210], the “Value … LOOP7 conformational peptide array” value came out at 628 mAU.

In the case of 177 (CSFADVSTC) [compound 177], the “Value … LOOP7 conformational peptide array” value is given as 390 mAU. 218 (CESGEDIVC) [compound 218]: the “Value … LOOP7 conformational peptide array” value was 420 mAU. The same measure, in the same setting: then 176 (CQSFADVSC) [compound 176], with 413 mAU. With 188 (CFIPEVRIC) [compound 188], the “Value … LOOP7 conformational peptide array” value was 414 mAU. In the case of 209 (CSYDAQFEC) [compound 209], the “Value … LOOP7 conformational peptide array” value is 570 mAU. Consider 215 (CDEVQISIC) [compound 215], for which the “Value … LOOP7 conformational peptide array” value was 378 mAU. Same read-out and setting: then 185 (CTESYFIPC) [compound 185], with 549 mAU. On the same count and under the same terms, then 208 (CRISYDAQC) [compound 208], with 287 mAU; and 225 (CGEYYSTAC) [compound 225], with 552 mAU. Still for that read-out and setting: as for 197 (CVILEFPVC) [compound 197], the figure is 527 mAU.

The assay is the same for the next values; noted with them: mimic type LOOP15 (single loop, mP2 CLIPS); sample with the highest signal.
Turning to 243 (CSTESYFIPEVRIYDSC) [compound 243], the “Value (binding intensity of His-tagged CD38), LOOP15 conformational peptide array” value turned out to be 660 mAU.

In the case of 251 (CDQNFVILEFPVEEQDC) [compound 251], the “Value (binding intensity of His-tagged CD38), LOOP15 conformational peptide array” value was 634 mAU. Same read-out and setting: as for 262 (CISKVSSIVVNITELFC) [compound 262], the figure is 795 mAU; as for 235 (CVLFYNISSMKSTESYC) [compound 235], 371 mAU; as for 238 (CNISSMKSTESYFIPEC) [compound 238], 478 mAU.

A further assay deals with human Daudi cells.
Assay: not given
The format is cell-based. The following applies: glucose-deprived cells, 1 hour treatment (1 µM per figure legends; 10 µg/mL per method), 2-NBDG 500 µM 30 minutes. How it is done:
Human Daudi cells cultured in 75 cm^2 flask were centrifuged ( 300 g, 3 minutes), resuspended in warmed PBS supplemented with 10 % goat serum and seeded in 96-well microplate ( 100 µL, 2 × 10^6 cells/mL) in order to deprive cells from glucose. Cells were treated with test treatments (10 µg/mL) for 1 hour (37° C.). Cells were then incubated with 500 µM of the fluorescent and non-metabolizable glucose analog 2-NBDG ((2R,3R,4S,5R)-3,4,5,6-tetrahydroxy-2-[(7-nitro-2,1,3-benzoxadiazol-4-yl)amino]hexanal; Thermo Fischer) for 30 minutes at 37° C., and washed 4 times with PBS containing 10 % of goat serum. Images were acquired using a Zeiss microscope (20 X) and the relative fluorescence intensity of 30 cells was determined using Fiji.
To determine the effect of test compounds on glucose uptake, we developed a cellular model based on the use of human Daudi cells, a cell line known to strongly express CD38.
Human Daudi cells were plated in culture medium deprived of glucose and exposed to test treatments (peptides of Table 6) for 1 hour and then incubated with the non-metabolizable, fluorescent glucose 2-NBDG. After 30 minutes of incubation, cells were washed and imaged using a microscope. Fluorescence levels were determined using Fiji.
As to NFVTLEFP [SEQ ID NO: 312], the “glucose uptake (2-NBDG fluorescence)” value is recorded as “still active”.

For NFVFLEFP [SEQ ID NO: 311], the “glucose uptake (2-NBDG fluorescence)” value was “still active”. Turning to NFVHLEFP [SEQ ID NO: 314], the “glucose uptake (2-NBDG fluorescence)” value was “impact the glucose uptake-increasing activity of the peptide”.

Turning to NYVILEFP [SEQ ID NO: 305], the “glucose uptake (2-NBDG fluorescence)” value is recorded as “still increase glucose uptake”. On to NWVILEFP [SEQ ID NO: 306], for which the “glucose uptake (2-NBDG fluorescence)” value is given as “still increase glucose uptake”. For NFVIAEFP [SEQ ID NO: 297], the “glucose uptake (2-NBDG fluorescence)” value is reported as “slightly decreased the activity of the peptide, although it remained overall active”. Still for that read-out and setting: as for HFVILEFP [SEQ ID NO: 304], the entry is “impact the glucose uptake-increasing activity of the peptide”. On the same count and under the same terms, as for NSVILEFP [SEQ ID NO: 308], the entry is “keep glucose uptake-increasing activity”; as for NFVITEFP [SEQ ID NO: 316], “impact the glucose uptake-increasing activity of the peptide”; as for NHVILEFP [SEQ ID NO: 309], “impact the glucose uptake-increasing activity of the peptide”.

Take NFVDLEFP [SEQ ID NO: 315]: the “glucose uptake (2-NBDG fluorescence)” value is given as “impact the glucose uptake-increasing activity of the peptide”.

As for NFVQLEFP [SEQ ID NO: 313], the “glucose uptake (2-NBDG fluorescence)” value is reported as “still active”. The same measure, in the same setting: as for NFVIHEFP [SEQ ID NO: 318], the entry is “impact the glucose uptake-increasing activity of the peptide”; as for NDVILEFP [SEQ ID NO: 310], “impact the glucose uptake-increasing activity of the peptide”; as for TFVILEFP [SEQ ID NO: 303], “still increase glucose uptake, although to a lesser extent”.

Staying with this assay, now noted: parent SEQ ID NO: 6 (deletions) or SEQ ID NO: 8 (alanine scanning); 2-NBDG fluorescence.
As to NFVILAFP [SEQ ID NO: 298], the “effect of the C-terminal deletion or alanine substitution (relative to the parent peptide) on glucose uptake” value is “had no effect on glucose uptake”.

As for NFVILEFA [SEQ ID NO: 300], the “effect of the C-terminal deletion or alanine substitution (relative to the parent peptide) on glucose uptake” value is reported as “had no effect on glucose uptake”.

With NFAILEFP [SEQ ID NO: 295], the “effect of the C-terminal deletion or alanine substitution (relative to the parent peptide) on glucose uptake” value was “had no effect on glucose uptake”.

As for NFVILEAP [SEQ ID NO: 299], the “effect of the C-terminal deletion or alanine substitution (relative to the parent peptide) on glucose uptake” value is on record as “had no effect on glucose uptake”.
